From PMC7971329 (Oncoimmunology, 2021) come the findings set out here.

The target in this experiment is human interleukin-2 (human, UniProt P60568). As to the kind of experiment: SEC. (In general: SEC sorts molecules by how far they enter the pores of the column.)
Sequence of human interleukin-2 (P60568 21-153): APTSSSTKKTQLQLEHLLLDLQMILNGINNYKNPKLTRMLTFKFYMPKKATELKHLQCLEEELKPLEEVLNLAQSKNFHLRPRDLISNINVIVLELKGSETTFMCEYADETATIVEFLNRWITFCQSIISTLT

B1: TCB2-Fab (Fab, V domains shown)
VH: EVQLQQSGAELARPGASVKLSCKASGYTFTTYWIQWVKQRPGQGLEWIGAIYPGDGDTRYIQNFKGKATLTADKSSSTAYMQLSSLASEDSAVYYCARSLATRGFYAMDYWGQGTSVTVSS
VL: DIVMTQSPASLSMAIGEKVTIRCITSTDIDDDMNWYQQKPGEPPKLLISEGNTLRPGVPSRFSSSGYGTDFVFTIENMLSEDVADYYCLQSDNLPYTFGGGTKLEIK
On to B1, for which the binding result is reported as “binds”.
